The text below walks through data of the RNAGym collection of RNA variant scans (doi:10.7554/elife.80360).

First the molecules themselves.
B1: CPEB3 Ribozyme (parent)
chain: GGGGGCCACAGCAGAAGCGUUCACGUCGCGGCCCCUGUCAGAUUCUGGUGAAUCUGCGAAUUCUGCUGU

The variants in the series derive from B1. The series is described as follows: self-cleavage, relative activity (ratio to wild type); higher = more cleavage; co-transcriptional.
Regarding C29G U49C, the self-cleavage is 0.544.
In the case of G28U G58U it was 0.182; in that of G28U C29G, 0.129; in that of G28U U62C, 0.127.
In the case of C29A G41U it was 0.296.
Regarding C29A G41A, the self-cleavage came out at 0.215.
In the case of C29G U61C it was 0.221; in that of C29G U61G, 0.348.
The value for C29G U67A was 0.517; that for C29G U67C was 0.47; that for C29A U62G was 0.269.
The value for C29A G50C was 0.71; that for C29A C57U was 0.247; that for C29G A51C was 0.484.
For the variant C29G A51G, the self-cleavage turned out to be 0.541.
The value for C29G A51U was 0.439; that for G28U U36G was 0.106; that for G28U U36A was 0.168.
The value for G28C G58U was 0.187; that for G28C G58A was 0.156; that for G28U C45G was 0.162.
As for G28U G37A, the self-cleavage stood at 0.206.
In the case of G28U A52G it was 0.18; in that of G28U U61A, 0.204.
The value for G28C U67A was 0.182; that for G28C G56C was 0.192; that for G28C G56A was 0.181.
In the case of C29G U46C it was 0.473.
On to C29A G37A, for which the self-cleavage amounted to 0.207.
The value for C29G C63G was 0.183.
The value for C29G G31C was 0.13; that for C29G C34U was 0.495; that for C29G C34A was 0.227.
The value for G28U U43G was 0.0809; that for G28U U43A was 0.135; that for C29A C45G was 0.605.
Regarding C29A C45A, the self-cleavage came out at 0.635.
For G28C U64C, the self-cleavage was determined as 0.194.
Turning to G28U C32U, the self-cleavage stood at 0.226.
Regarding G28U C32G, the self-cleavage was 0.217.
As for G28C G50A, the self-cleavage was determined as 0.166.
In the case of G28C G50U it was 0.143.
The value for G28C G50C was 0.168.
As for C29A U43G, the self-cleavage stood at 0.364.
In the case of C29A U43C it was 0.465; in that of G28C U44G, 0.191; in that of C29G G50C, 0.457.
Regarding G28C G48C, the self-cleavage amounted to 0.135.
In the case of G28U G65A it was 0.146.
With G28U G65U, the self-cleavage amounted to 0.2.
For C29G A42C, the self-cleavage was 0.347.
The value for G28C U49G was 0.182; that for G28C U49A was 0.126.
As for G28C C45U, the self-cleavage came out at 0.194.
In the case of G28C C45A it was 0.135.
In the case of C29A C35A it was 0.157.
In the case of C29A A59C, the self-cleavage worked out at 0.274.
The value for C29A A59U was 0.283; that for C29A G47A was 0.796.
The value for C29A G56C was 0.297; that for C29A G56A was 0.492.
The value for C29A G56U was 0.367; that for G28U C54U was 0.178; that for G28U U55G was 0.168.
Consider G28U A42C, for which the self-cleavage came out at 0.153.
In the case of C29A U69G it was 0.864; in that of C29A U69A, 0.91; in that of C29G G37A, 0.178.
The value for C29G G37C was 0.169; that for G28C G68C was 0.147.
Consider C29A U44C, for which the self-cleavage came out at 0.515.
Turning to C29A U44G, the self-cleavage amounted to 0.521.
In the case of G28C U38A it was 0.222; in that of G28C U38G, 0.133; in that of G28U U69A, 0.183.
In the case of G28U U69C it was 0.235.
In the case of C29G U43C it was 0.428; in that of C29G U43A, 0.186; in that of C29G C33U, 0.558.
As for C29A C32A, the self-cleavage was determined as 0.297.
Consider C29G U36C, for which the self-cleavage was 0.286.
Consider C29A C63U, for which the self-cleavage was 0.465.
The value for C29G G41U was 0.21; that for C29G G41C was 0.173; that for G28C C39A was 0.156.
In the case of G28C C39U it was 0.207; in that of C29A A51C, 0.534.
For C29A C54U, the self-cleavage came out at 0.682.
The value for C29A C54G was 0.299; that for G28U U44C was 0.181.
As to G28U U44A, the self-cleavage came to 0.135.
In the case of G28C U61A it was 0.256; in that of G28C U61G, 0.229.
The value for G28C G30U was 0.2.
In the case of G28C C63G it was 0.198; in that of G28C C63A, 0.186.
Regarding C29G A59G, the self-cleavage was 0.675.
In the case of C29A U67G it was 0.79; in that of G28C A60C, 0.217.
In the case of G28U C57G it was 0.161; in that of G28U C57A, 0.188.
The value for C29G U64A was 0.191; that for G28U A60U was 0.138.
Consider C29G G30U, for which the self-cleavage is 0.219.
In the case of G28C U62G it was 0.209; in that of C29G C32U, 0.313; in that of G28U C35U, 0.192.
In the case of C29A A60G it was 0.334; in that of C29A A60C, 0.307; in that of G28U U64C, 0.219.
In the case of C29G A52C it was 0.467.
In the case of G28U G56C, the self-cleavage is 0.163.
The value for G28U G56U was 0.137; that for G28U G56A was 0.14; that for G28U A59C was 0.251.
In the case of C29G U38A it was 0.316; in that of G28C C35G, 0.17; in that of C29A U46A, 0.845.
In the case of C29A U46C it was 0.68; in that of C29G G68U, 0.8; in that of G28U A51U, 0.182.
Turning to G28C A42G, the self-cleavage worked out at 0.128.
In the case of G28C U69G it was 0.301.
In the case of G28C U69C it was 0.276; in that of C29G C45U, 0.601; in that of G28U G31A, 0.24.
The value for C29A C66A was 0.334; that for G28C U55A was 0.241; that for G28U C33U was 0.155.
In the case of G28U C39U, the self-cleavage came out at 0.171.
In the case of C29A G58C it was 0.685.
The value for C29A G58U was 0.795; that for G28U U53C was 0.157; that for G28U G48U was 0.198.
G28U G48C: the self-cleavage turned out to be 0.169.
In the case of C29A U36G it was 0.179; in that of C29A U55G, 0.323; in that of C29A C39A, 0.327.
The value for G28U was 0.178; that for G28U G50U was 0.165; that for C29A G68A was 0.914.
In the case of G28C U46C it was 0.131; in that of G28C U46G, 0.118; in that of G28C U46A, 0.173.
For G28C G65U, the self-cleavage turned out to be 0.16.
The value for G28U G68A was 0.195; that for G28U G68U was 0.208; that for G28U A40U was 0.213.
For G28C C33G, the self-cleavage turned out to be 0.166.
In the case of C29A U61C it was 0.374; in that of C29A U61G, 0.613; in that of G28C C34A, 0.127.
With C29G C66G, the self-cleavage came to 0.369.
In the case of C29G C54G it was 0.246.
In the case of C29G C54U, the self-cleavage worked out at 0.545.
The value for C29A U49A was 0.805; that for C29G C39G was 0.267; that for C29G C39U was 0.251.
In the case of G28C A52G it was 0.174; in that of G28C A52C, 0.198.
Turning to C29A C33G, the self-cleavage is 0.281.
The value for C29A C33U was 0.594; that for G28U C34U was 0.204; that for G28U C34G was 0.219.
The value for G28C C54A was 0.151; that for C29G G58A was 0.327.
In the case of C29G U44G it was 0.361.
